Reference: patent publication US20240043562A1 (ACADEMISCH ZIEKENHUIS LEIDEN H O D N LUMC, published 2024)

T1: MuSK at the postsynaptic membrane of mouse neuromuscular junctions (levator auris longus muscle) (mouse, UniProt Q61006 22-868)
T1 construct: whole, on cells; Target in tissue immunostaining; also called mouse NMJs; MuSK at the NMJ
T1 sequence (looked up): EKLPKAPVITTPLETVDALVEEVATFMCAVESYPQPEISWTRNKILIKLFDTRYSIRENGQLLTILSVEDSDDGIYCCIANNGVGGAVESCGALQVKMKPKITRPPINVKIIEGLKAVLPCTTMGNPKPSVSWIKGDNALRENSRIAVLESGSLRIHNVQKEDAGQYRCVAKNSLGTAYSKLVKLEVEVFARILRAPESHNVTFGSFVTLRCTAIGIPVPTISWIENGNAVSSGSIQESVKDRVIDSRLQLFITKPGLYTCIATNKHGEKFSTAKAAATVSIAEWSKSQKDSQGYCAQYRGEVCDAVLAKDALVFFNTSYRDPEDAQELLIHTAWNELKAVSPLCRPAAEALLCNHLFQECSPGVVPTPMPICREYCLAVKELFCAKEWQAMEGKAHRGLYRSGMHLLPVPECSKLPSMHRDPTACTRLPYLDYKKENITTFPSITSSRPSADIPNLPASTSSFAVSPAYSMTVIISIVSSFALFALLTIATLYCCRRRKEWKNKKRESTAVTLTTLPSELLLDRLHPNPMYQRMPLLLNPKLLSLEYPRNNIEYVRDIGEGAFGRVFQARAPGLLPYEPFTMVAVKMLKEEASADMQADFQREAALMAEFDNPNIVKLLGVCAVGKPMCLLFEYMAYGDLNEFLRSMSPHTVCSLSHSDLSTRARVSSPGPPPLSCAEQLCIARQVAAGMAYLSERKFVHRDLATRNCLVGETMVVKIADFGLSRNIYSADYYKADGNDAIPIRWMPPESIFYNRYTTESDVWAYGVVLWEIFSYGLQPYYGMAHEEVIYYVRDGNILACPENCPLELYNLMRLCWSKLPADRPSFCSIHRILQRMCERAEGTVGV


Molecular target: T1, MuSK at the postsynaptic membrane of …
Assay: immunostaining of whole-mount mouse levator auris longus muscle
Method: FIG. 6—anti-MuSK/Anti-HIV-b12 exchanged heterospecific IgG4 antibodies were generated using methods detailed in Labrijn, 2014, Nature Protocols and Genmab, Labrijn, 2013, PNAS, which were adjusted to IgG4. These antibodies were tested for MuSK binding in mouse neuromuscular junction (NMJ) in ex vivo levator auris longus muscle. Equivalent anti-MuSK homospecific antibodies were also tested in parallel. The data confirms that both heterospecific MuSK IgG4 antibodies (13-3B5/HIV IgG4 and 11-3F6/HIV IgG4) and homospecific MuSK IgG4 antibodies (13-3B5 IgG4 and 11-3F6 IgG4) bind to MuSK at the NMJ.
To determine the binding characteristics of the recombinant and medium produced antibodies we performed an epitope mapping ELISA as described previously (Huijbers et al., 2016). Truncated versions of the MuSK proteins were immobilized on maxisorp plates and exposed to either antibodies from the single cell cultures 1:10 or to recombinant antibodies. Recombinant antibodies were also used to immunostain mouse levator auris longus muscle overnight at 4° C. at 1:100. AChRs in synaptic regions were labelled with AlexaFluor488 conjugated alpha-bungarotoxin (Life technologies) and bound recombinant antibodies were detected with AlexaFluor594 conjugated goat anti-human IgG (Life technologies). Muscles were imaged on a Leica SP8 confocal laser-scanning microscope and analyzed using Las X software.

Row | binding result | Binder
1 | binds | recombinant 13-3B5 IgG4 (antibody, V domains shown, Variable regions cloned in an IgG4 backbone and expressed in HEK293-F cells; Bivalent and monospecific; also called homospecific 13-3B5 IgG4; 13-365) VH: QVQLVQSGAVVAKPGASVQVSCKTSGYTFTGQYLHWVRQAPGQGLEWIGWINPSSGVTKFAEKFEGRATMTRDTSITTAYIDLRSLRSDDTATYYCATLSLGVYYVGMVAWGQGTLVTVSS VL: SYELTQPPSVSVSPGQTATITCSGDGLAQQHVYWFQQRPGQAPLLIIYKDIERPSGIPERFSGSSSGTTAMLTISGVQAEDEADYYCQSGDRTATSVLFGGGTKMTVL
2 | binds | recombinant 11-3F6 IgG4 (antibody, V domains shown, Variable regions cloned in an IgG4 backbone and expressed in HEK293-F cells; Bivalent and monospecific; also called homospecific 11-3F6 IgG4) VH: EVQLVESGGGLVKPGGSLRLSCAASGFTFSSYTMDWVRQAPGKGLEWVSSIGSNGDYIYYADSVRGRFTISRDNAKNSLYLQMNSLRPDDTADYYCARGQLAVAGTHFDYWGRGSLVTVSS VL: DIQMTQSPSSLSASVGDRVTISCRASQKVNKYVNWYQQTPGKAPRLLIYAASTLQSGVPSRFSGSGSGANFTLTISGLQPEDFAIYFCQQSYSPLCTFGQGTKLEIK
